Measurements published in patent CN108059681A (BEIJING GEGEN BIOTECHNOLOGY CO LTD; YICON BEIJING MEDICAL …, dated 2018).

Molecular target: T1, EGFR蛋白 (UniProt P00533 25-645, limits assumed)
T1 construct: The construct is not described; also called 表皮生长因子受体
Experiment: affinity constant; method not stated

B1: EGFR ScFv (抗EGFR单链抗体) (scFv)
scFv: QVQLQQWGGGVVQPGRSLRLSCAASGFTFSSYAMHWVRQAPGKGLEWVAVISYDGSNKYYADSVKGRFTISRDNSKNTLYLQMDSLRAEDTAVYYCARSGRYFDWLLPFDYGGGGSGGGGSELALTQPPSASVAPGKTARITCGGNNIGSKSVHWYQQKPGQAPVLVIYYDSDRPSGIPERFSGSNSGNTATLTISRVEAGDEADYYCQVWDSSSDQGVFGGGTQLTVL
notes: Human scFv from a phage library, expressed in E. coli; also called 抗EGFR ScFv
Question: Which Kd does the source give for B1 here?
Answer: Its Kd is 0.284 nM.
